B1: Thermoplasma acidophilium 20S proteasome α-subunit, wild type, full-length (natural protein, UniProt P25156 1-233, looked up)
chain: MQQGQMAYDRAITVFSPDGRLFQVEYAREAVKKGSTALGMKFANGVLLISDKKVRSRLIEQNSIEKIQLIDDYVAAVTSGLVADARVLVDFARISAQQEKVTYGSLVNIENLVKRVADQMQQYTQYGGVRPYGVSLIFAGIDQIGPRLFDCDPAGTINEYKATAIGSGKDAVVSFLEREYKENLPEKEAVTLGIKALKSSLEEGEELKAPEIASITVGNKYRIYDQEEVKKFL
notes: 20S proteasome α-subunit of Thermoplasma acidophilum, full-length; For the asymmetric CP the wild-type ring was co-expressed from α-His and α-MBP (both C-terminal, TEV site before the tag); All tags were removed after final purification, so the subunit is untagged in the EM samples; All these forms are kept as one molecule here; also called αWT; αwt
B2: Thermoplasma acidophilium 20S proteasome α-subunit R28L (natural protein, UniProt P25156 1-233, looked up)
chain: B1 chain with R28L
notes: also called proximal α-ring of PAN-αWTββα_(K66A)
B3: Thermoplasma acidophilium 20S proteasome α-subunit K66A (natural protein, UniProt P25156 1-233, looked up)
chain: B1 chain with K66A
notes: 20S proteasome α-subunit of Thermoplasma acidophilum, full-length, K66A; In the EM samples the K66A ring (distal ring of the asymmetric CP) is untagged; also called α_(K66A); distal α-ring; source: E. coli BL21(DE3), purified (strep-trap column)
B4: Thermoplasma acidophilium 20S proteasome β-subunit, pro-peptide truncated (residues 2–8 removed) (natural protein)
chain: TTTVGITLKDAVIMATERRVTMENFIMHKNGKKLFQIDTYTGMTIAGLVGDAQVLVRYMKAELELYRLQRRVNMPIEAVATLLSNMLNQVKYMPYMVQLLVGGIDTAPHVFSIDAAGGSVEDIYASTGSGSPFVYGVLESQYSEKMTVDEGVDLVIRAISAAKQRDSASGGMIDVAVITRKDGYVQLPTDQIESRIRKLGLIL
notes: 20S proteasome β-subunit of Thermoplasma acidophilum; residues 2–8 truncated to simulate the autoproteolytic removal of the N-terminal pro-peptide; A protease (TEV) site stands before the tag; Tags were removed after final purification of the assembled CP; also called β monomers; source: E. coli BL21(DE3), purified (Ni-NTA)

The target of data set [1] is in vitro assembled symmetric wild-type Thermoplasma acidophilium 20S core particle αWTββαWT (Thermoplasma acidophilium) (UniProt P25156).
Data set [2] addresses in vitro assembled asymmetric Thermoplasma acidophilium 20S core particle αWTββα_(K66A) (Thermoplasma acidophilium) (UniProt P25156).
For data set [3], the target named is in vitro assembled symmetric wild-type Thermoplasma acidophilium 20S core particle αWTββαWT (Thermoplasma acidophilium) (UniProt P25156). The source holds these as a separate data set.
For data set [4], the target named is in vitro assembled asymmetric Thermoplasma acidophilium 20S core particle αWTββα_(K66A) (Thermoplasma acidophilium) (UniProt P25156). The source holds these as a separate data set.
Data set [5] concerns the molecule itself. Nature of the data set: negative stain EM; α-subunits expressed in E. coli and purified alone; Supplementary Fig. 1c–i (panel c is negative stain EM; the method of the other panels was not shown).
The target in data set [6] is B3. Nature of the data set: in vitro reconstitution with two-step affinity purification; two types of purified α-subunits and β-subunit mixed 1:2:1 in Tris buffer pH 7.5, 1 h at 37 °C; strep-trap column (α K66A), TEV cleavage of all tags except MBP, then MBP column (wild-type α). To be noted: both partners purified.
Data set [7] deals with the molecule itself. Briefly: cryo-EM structure; single-particle cryo-EM of asymmetric CP with one activator bound, with or without substrate (LFP, GFP-ssrA), C7 symmetry applied, about 3 Å; PAN complexes with nucleotide.
For data set [8], the target named is B1. The description is as above. As to conditions: both partners purified.
The target of data set [9] is B2. Described as above. To be noted: both partners purified.

Where a chain is given by its changes, count along the chain named. Names may count otherwise. “And” between values parts separate entries of the source, which are not always exact repeats. Equal entries are not always repeated.

As a reminder, the stoichiometry N is the number of molecules, sites or subunits per partner or assembly.

On to “PA26PANc: PA26 (Trypanosoma brucei) with E102A and the last eight C-terminal residues replaced with the last eight C-terminal residues of PAN”, for which, in [1], the Kcat (1/min) of LFP peptide degradation, 16 nM CP with 112 nM activator (doubly capped) stood at 0.207 s⁻¹ and the Vmax (μM/min) of LFP peptide degradation, 16 nM CP with 112 nM activator (doubly capped) was determined as 199 µM/min. In addition, in data set [2], the Kcat (1/min) of LFP peptide degradation, 16 nM CP with 112 nM activator (singly capped) worked out at 0.24 s⁻¹ and the Vmax (μM/min) of LFP peptide degradation, 16 nM CP with 112 nM activator (singly capped) came out at 230 µM/min.

For the molecule “PA26 (Trypanosoma brucei) with the point mutation V230F (natural protein)”, in data set [3], the Kcat (1/min) of LFP peptidase activity, CP with PA26 (doubly capped) was 0.839 s⁻¹ and the Vmax (μM/min) of LFP peptidase activity, CP with PA26 (doubly capped) worked out at 805 µM/min. In data set [4], the Kcat (1/min) of LFP peptidase activity, CP with PA26 (singly capped) came to 0.426 s⁻¹ and the Vmax (μM/min) of LFP peptidase activity, CP with PA26 (singly capped) turned out to be 409 µM/min.

Turning to B1, the “stoichiometry N” value in [5] is 7 and 14. Also, the binding result in [6] was “binds”.

Regarding B2, the binding result in [7] is given as “binds”.

In the case of B3, the binding result in [7] is “binds”.

On to B4, for which the binding result in data set [6], in data set [8] and in data set [9] was “binds” in each case.

The values are drawn from publication PMC7486400, “Allosteric coupling between α-rings of the 20S proteasome” (Nature Communications, 2020).
